Laboratory results from patent publication US20230406935A1 (F STAR THERAPEUTICS, published 2023).
Changes are numbered by the printed parent chain.

B1: FS17-33-266AA/HELD1.3 (bispecific antibody)
chain 1: QVQLQESGPGLVRPSQTLSLTCTVSGSTFSGYGVNWVRQPPGRGLEWIGMIWGDGNTDYNSALKSRVTMLVDTSKNQFSLRLSSVTAADTAVYYCARERDYRLDYWGQGSLVTVSSASTKGPSVFPLAPSSKSTSGGTAALGCLVKDYFPEPVTVSWNSGALTSGVHTFPAVLQSSGLYSLSSVVTVPSSSLGTQTYICNVNHKPSNTKVDKKVEPKSCDKTHTCPPCPAPEAAGGPSVFLFPPKPKDTLMISRTPEVTCVVVDVSHEDPEVKFNWYVDGVEVHNAKTKPREEQYNSTYRVVSVLTVLHQDWLNGKEYKCKVSNKALPAPIEKTISKAKGQPREPQVYTLPPSRDESGYWVSLTCLVKGFYPSDIAVEWESNGEPQYWAKTTPPVLDSDGSFFLYSKLTVSNWRWRLDDFSCSVMHEALHNHYTQKSLSLSPGK
chain 2: DIQMTQSPASLSASVGETVTITCRASGNIHNYLAWYQQKQGKSPQLLVYNAKTLADGVPSRFSGSGSGTQYSLKINSLQPEDFGSYYCQHFWSTPRTFGGGTKLEIKRTVAAPSVFIFPPSDEQLKSGTASVVCLLNNFYPREAKVQWKVDNALQSGNSQESVTEQDSKDSTYSLSSTLTLSKADYEKHKVYACEVTHQGLSSPVTKSFNRGEC
B2: FS17-33-271AA/HELD1.3 (bispecific antibody)
chain 1: B1 chain 1 with R416H
chain 2: B1 chain 2
B3: FS17-33-316AA/HELD1.3 (bispecific antibody)
chain 1: B1 chain 1 with R416Q, D419A
chain 2: B1 chain 2
B4: FS17-33-277AA/HELD1.3 (bispecific antibody)
chain 1: B1 chain 1 with R416S
chain 2: B1 chain 2
B5: FS17-33-460AA/HELD1.3 (bispecific antibody)
chain 1: QVQLQESGPGLVRPSQTLSLTCTVSGSTFSGYGVNWVRQPPGRGLEWIGMIWGDGNTDYNSALKSRVTMLVDTSKNQFSLRLSSVTAADTAVYYCARERDYRLDYWGQGSLVTVSSASTKGPSVFPLAPSSKSTSGGTAALGCLVKDYFPEPVTVSWNSGALTSGVHTFPAVLQSSGLYSLSSVVTVPSSSLGTQTYICNVNHKPSNTKVDKKVEPKSCDKTHTCPPCPAPEAAGGPSVFLFPPKPKDTLMISRTPEVTCVVVDVSHEDPEVKFNWYVDGVEVHNAKTKPREEQYNSTYRVVSVLTVLHQDWLNGKEYKCKVSNKALPAPIEKTISKAKGQPREPQVYTLPPSRDESGYWVSLTCLVKGFYPSDIAVEWESNGEPQYWAKTTPPVLDSDGSFFLYSKLTVSNWRWHLDDVFSCSVMHEALHNHYTQKSLSLSPGK
chain 2: B1 chain 2
B6: FS17-33-453AA/HELD1.3 (bispecific antibody)
chain 1: B5 chain 1 with S357L, H416Q
chain 2: B1 chain 2
B7: FS17-33-455AA/HELD1.3 (bispecific antibody)
chain 1: B5 chain 1 with S357Y, H416Q
chain 2: B1 chain 2
B8: FS17-33-454AA/HELD1.3 (bispecific antibody)
chain 1: B5 chain 1 with S357F, H416Q
chain 2: B1 chain 2
B9: FS17-33-457AA/HELD1.3 (bispecific antibody)
chain 1: B5 chain 1 with N412Q, H416Q
chain 2: B1 chain 2
B10: FS17-33-459AA/HELD1.3 (bispecific antibody)
chain 1: B5 chain 1 with H416R
chain 2: B1 chain 2
B11: FS17-33-458AA/HELD1.3 (bispecific antibody)
chain 1: B5 chain 1 with N412H, H416Q
chain 2: B1 chain 2
B12: FS17-33-456AA/HELD1.3 (bispecific antibody)
chain 1: B5 chain 1 with N412A, H416Q
chain 2: B1 chain 2

Biological target: Human PD-L1 expressed on cells (human, UniProt Q9NZQ7 19-290)
Sequence (Q9NZQ7 19-290 limits assumed): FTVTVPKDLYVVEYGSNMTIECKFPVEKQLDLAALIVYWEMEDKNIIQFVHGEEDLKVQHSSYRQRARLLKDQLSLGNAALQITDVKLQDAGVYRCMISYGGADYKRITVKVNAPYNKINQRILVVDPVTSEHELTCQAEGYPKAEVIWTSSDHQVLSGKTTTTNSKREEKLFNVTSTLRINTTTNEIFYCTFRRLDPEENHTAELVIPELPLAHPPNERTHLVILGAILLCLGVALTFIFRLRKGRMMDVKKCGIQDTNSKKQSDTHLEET
Test: cell-based or functional assay

DO11.10 EC50	Binder
0.434 nM	B1
0.254 nM	B2
0.563 nM	B3
0.319 nM	B4

Biological target: T1, Monomeric His-tagged human PD-L1 (Acro biosystems PD1-H5229) (human, UniProt Q9NZQ7 19-238)
T1 construct: also called hPD-L1-his; PD-L1-his
T1 sequence (Q9NZQ7 19-238 limits assumed): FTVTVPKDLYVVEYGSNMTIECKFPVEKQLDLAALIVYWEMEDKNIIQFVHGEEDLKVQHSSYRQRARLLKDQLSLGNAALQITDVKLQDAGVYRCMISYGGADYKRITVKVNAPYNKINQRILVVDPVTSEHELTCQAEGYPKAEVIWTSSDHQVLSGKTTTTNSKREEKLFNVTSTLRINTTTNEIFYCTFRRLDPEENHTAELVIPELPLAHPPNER
Test: off-rate, binding to hPD-L1, mock mAb^2; instrument not stated

koff	Binder
0.000202 s⁻¹	B5
0.000303 s⁻¹	B6
0.000343 s⁻¹	B7
0.000269 s⁻¹	B8
0.000589 s⁻¹	B9
0.00038 s⁻¹	B10
0.000456 s⁻¹	B11
0.000619 s⁻¹	B12

Biological target: T1, Monomeric His-tagged human PD-L1 (Acro …)
Test: off-rate on PD-L1, mock mAb^2; instrument not given

koff	Binder
0.000377 s⁻¹	B1
0.000518 s⁻¹	B2
0.000566 s⁻¹	B3
0.000415 s⁻¹	B4
